Data from PMC5609902 (Oncotarget, 2017).

Key:
JRFL rgp120 [1] = molecular target: T1, JRFL rgp120 (HIV-1 JRFL (clade B), UniProt Q75760, strain); assay: cell-based or functional assay
[2] = molecular target: Env glycoprotein (gp160) of HIV-1 NL4-3, wild type (HIV-1 NL4-3 (clade B), UniProt Q6BC06, strain); assay: cell-based or functional assay
rgp120 (R2) = molecular target: T2, rgp120 (R2) (HIV-1 R2); assay: ELISA; direct ELISA; 1 μg/ml rgp120 or rgp140 coated in 0.1 M carbonate buffer pH 9.6, 4°C overnight; antibody 1 h at 37°C; detected with HRP goat anti-human IgG; details: both partners purified
T2 construct: gp120, the surface subunit of the Env glycoprotein, HIV-1 isolate R2; recombinant; also called native rgp120; coated rgp120; source: bought: Immune Technology Corp or Enzyme LLC

JRFL rgp120 [3] = molecular target: T1, JRFL rgp120; assay: SPR; BIACORE T200; rgp120 immobilised on CM5 chip by amine coupling (20 μg/ml); antibody in two-fold dilutions injected at 30 μl/min for 3 min; 1:1 Langmuir model, global fit; details: both partners purified
CN54 rgp120 = molecular target: T3, CN54 rgp120 (HIV-1 isolate CN54 (97CN54), CRF07_BC, UniProt Q994N8, strain); assay: as above; details: both partners purified
T3 construct: gp120, the surface subunit of the Env glycoprotein, HIV-1 isolate CN54 (CRF07_BC); recombinant; also called CRF07_BC (CN54)-derived rgp120; CN54 gp120; source: bought: Immune Technology Corp or Enzyme LLC

B1: Y498 IgG1 (antibody, V domains shown)
VH: KVQLVQSGTELKKPGASGKVSCKASGYTFNSNGLNWVRQAPGQGLEWVGWISGHSDETKHAQNFQGRLTLTTDTSTNTAYMELRSLRSDDTAVYYCARSLLRSLERLMGGTDAFDIWGQGTLVTVSS
VL: not shown
notes: as the VH of m1; as the VL of m1; Full-length IgG1, kappa light chain, made by recloning the Fab chains in the pDR12 vector; also called whole Y498 IgG1; source: 293T, transient transfection, purified from the culture medium (protein A/G sepharose)
With B1 the “neutralisation of the pseudovirus with JRFL Env (Env on the virus, not the rgp120), single cycle infection of TZM-bl cells, IC50” value (JRFL rgp120 [1]) was greater than 50 µg/mL, the “neutralisation of the pseudovirus with NL4-3 Env, single cycle infection of TZM-bl cells, IC50” value [2] was 0.61 µg/mL and the binding result (rgp120 (R2)) was “binds”. The Kd (JRFL rgp120 [3]) was 860 pM and the Kd (CN54 rgp120) was 460 pM.
